Molecular target: Claudin 18 splice variant 2 (CLDN18.2) (human)
Assay: cell-based or functional assay

Sequence of IMAB362 (VH): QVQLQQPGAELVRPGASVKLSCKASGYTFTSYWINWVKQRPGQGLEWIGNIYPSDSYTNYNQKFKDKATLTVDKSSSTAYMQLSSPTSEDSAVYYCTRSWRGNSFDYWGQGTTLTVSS
Sequence of IMAB362 (VL): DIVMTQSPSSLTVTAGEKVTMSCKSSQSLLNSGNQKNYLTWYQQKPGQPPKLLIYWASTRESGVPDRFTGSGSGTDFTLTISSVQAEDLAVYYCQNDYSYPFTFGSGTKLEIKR

## IMAB362 (antibody)
  CDC lysis of CLDN18.2-transfected CHO-K1 cells, 0.5 µg/ml IMAB362 in pooled sera from healthy controls, 80 min: 64.5%
  CDC lysis of CLDN18.2-transfected CHO-K1 cells, 0.5 µg/ml fresh IMAB362 in patient pre-infusion serum (20% v/v), 80 min: 71%
  CDC lysis of CLDN18.2-transfected CHO-K1 cells, 0.5 µg/ml fresh IMAB362 in pre-infusion serum of patient 0204, 80 min: 93.9%
  EC50 of CDC on CLDN18.2 positive CHO-K1 target cells: 0.5 µg/mL
  EC80-100 of total cytotoxicity (ADCC plus serum components) on NUGC-4 cells, healthy donor PBMCs, E:T 40:1, 25% serum: 200 µg/mL
  maximal specific lysis of NUGC-4 target cells, ADCC with patient PBMCs (E:T 20:1, 24 h), at ~30 µg/ml IMAB362: 27 to 77%
  specific killing of NUGC-4 cells by IMAB362 present in patient serum 28-32 days after administration (healthy donor PBMCs, E:T 40:1): > 48%

From patent US20260069687A1
